{
  "source": "a protein production outcome set (Wang et al. 2014)",
  "data": [
    {"assay": "label from the status in PepcDB records", "values": [
      {"sequence": "GSSGSSGHADEVWPGLYLGDQDMANNRRELRRLGITHVLNASHSRWRGTPEAYEGLGIRYLGVEAHDSPAFDMSIHFQTAADFIHRALSQPGGKILVHCAVGVSRSATLVLAYLMLYHHLTLVEAIKKVKDHRGIIPNRGFLRQLLALDRRLRQGLEA", "protein production": "not failed"},
      {"sequence": "GTGLHCLSIERDLMKKFHLKDAFIIPTPVNNYHASLGKAAAQYLETHLQQGDLLGIGWGETISKMLENIHFETSINLSIVTLTGGVNHYLSRKQNYLHYMQGDLHIIPTPFLASTTEMAQSILSEPSVKDMLHVASLAHTAIVGIGGLSQDATIVKEEKLTLREMTYIRSQNGAGDILGQFYNTNGDLLELSHHNRLIGTPLSILRNMNHVVGVAGGTEKIDAIYGALKGKFIHTLITDEETALSLLRKDGDC", "protein production": "failed"},
      {"sequence": "GTLQDGAVDWGVRRTFREYVTGDIAHGEWALTAGAQDGGALFRFPGGEGTYEDGDLNAAFRGTVRFTGAHGLDLSLGNVRTVVEDGRGTLYADVTSPDVKEAKVPLVTFTAGEPKPAGGLVKVTEAPAKLTARGAKAFGGMYRAGTEMDPVSLAVAL", "protein production": "failed"},
      {"sequence": "GTVSATSPNKCKRPMNAFMLFAKKYRVEYTQMYPGKDNRAISVILGDRWKKMKNEERRMYTLEAKALAEEQKRLNPDCWK", "protein production": "not failed"},
      {"sequence": "GVKCEPFEALTVDVEDAHQGGVMEELGRRKGDLQDMQPDGRGRTRLEYIIPARGLIGFQNEFLTLTRGTGLMSHIFHEYAPLREGSIGERRNGVLISQDNGDAVAYALWKLQDRGRMFVSPGEPLYEGMI", "protein production": "failed"},
      {"sequence": "GYNRRFDAGFVAARAAVASGELGALHTVRSTTLDPAPPPPAYVAASGGIFRDCSVHDFDIIRWVTGREVVEVYATGGNRGADYIAAAGDADTTAAVLTLDDGTLAVVSNSRHNARGHDVRMELHGFRDSIAVGLEDRLPLRSVEPGTSFPAGTPHDFFMDRFAAAYRAELTAFTEVVAGRRPSPCTVADALEAGWIAEACTLSLHSHRPVTVEEVRRQS", "protein production": "failed"},
      {"sequence": "HARPAGQLKVHSMPGVGQHYVIDAIARYRRNHPDVAFDLTMTHRVPDLLEEGFDVSIVLASELADSGFVSQRLGITYSIVCASPEYVKTFGMAHKPADLLNHACLRLVSPVFP", "protein production": "failed"},
      {"sequence": "HFNVLADTPSGLVPLHLRSPQVPAAQQMLNFPEKNKEKPVDLQNFGLRTDIYSKKTLAKSKGASAGREWTEQETLLLLEALEMYKDDWNKVSEHVGSRTQDECILHFLRLPIEDPYLENSDASLGPLAYQPVPFSQSGNPVMSTVAFLASVVDPRVASAAAKAALEEFSRVREEVPLELVEAHVKKVQEAARASGKVDPTYGLESSCIAGTGPDEPEKLEGAEEEKMEADPDGQQPEKAENKVENETDEGDKAQDGENEKNSEKEQDSEVSEDTKSEEKETEENKELTDTCKERESDTGKKKVEHEISEGNVATAAAAALASAATKAKHLAAVEERKIKSLVALLVETQMKKLEIKLRHFEELETIMDREKEALEQQRQQLLTERQNFHMEQLKYAELRARQQMEQQQHGQNPQQAHQHSGGPGLAPLGAAGHPGMMPHQQPPPYPLMHHQMPPPHPPQPGQIPGPGSMMPGQHMPGRMIPTVAANIHPSGSGPTPPGMPPMPGNILGPRVPLTAPNGMYPPPPQQQPPPPPPADGVPPPPAPGPPASAAP", "protein production": "not failed"},
      {"sequence": "HITLNYLSKTLGMHQTINVILPEDKSYFDTNENAKPLKTMLLLHGLSSDTSSYMRYTSIERYANTHQLAVVMPNADHSFYSNMAYGHSYYDYILEVYDYVHQILPLSKKREDNFIAGHSMGGYGAIKFALTQSYRFSKAAMLSAPYDVSMIGQYQWYDFTPEAIVGNTQHVAGTSFDPYYLVEQAIDNGQALPQLYITCGTEDELYQGNIDFVNYLDEKGIPYQFKKAPGNHDYAFWDKAIEDVIDRF", "protein production": "failed"},
      {"sequence": "HPMCKEHEDEKINIYCLTCEVPTCSMCKVFGIHKACEVAPLQSVFQGQKTE", "protein production": "not failed"},
      {"sequence": "HQQQRSVMTEEYKVPDGMVGFIIGRGGEQISRIQQESGCKIQIAPDSGGLPERSCMLTGTPESVQSAKRLLDQIVEKGR", "protein production": "not failed"},
      {"sequence": "HTETGNIWTHLLGFVLFLFLGILTMLRPNMYFMAPLQEKVVFGMFFLGAVLCLSFSWLFHTVYCHSEKVSRTFSKLDYSGIALLIMGSFVPWLYYSFYCSPQPRLIYLSIVCVLGISAIIVAQWDRFATPKHRQTRAGVFLGLGLSGVVPTMHFTIAEGFVKATTVGQMGWFFLMAVMYITGAGLYAARIPERFFPGKFDIWFQSHQIFHVLVVAAAFVHFYGVSNLQEFRYGLEGGCTDDTLL", "protein production": "failed"},
      {"sequence": "HYGEEPELVPSYTIFFSGCNFRCVFCQNWDISQFRVGVELLPEYLALKIERAYRFGARNVNFVGGEPTPNLPYILETLRYVNVPIPVVWNSNMYMSEEAMKLLDGIVD", "protein production": "failed"}
    ]}
  ]
}
